Results as given in patent US20220389118A1 (Chugai, published 2022).
Values belong to the binder of their own block, whether it stands above or below them.

Key:
[1] = molecular target: T1, human FcγRIIa type R extracellular domain with C-terminal His tag (human, UniProt P12318 34-217); assay: SPR
T1 construct: extracellular domain; also called FcγRIIaR; FcγRIIa R
T1 sequence (looked up): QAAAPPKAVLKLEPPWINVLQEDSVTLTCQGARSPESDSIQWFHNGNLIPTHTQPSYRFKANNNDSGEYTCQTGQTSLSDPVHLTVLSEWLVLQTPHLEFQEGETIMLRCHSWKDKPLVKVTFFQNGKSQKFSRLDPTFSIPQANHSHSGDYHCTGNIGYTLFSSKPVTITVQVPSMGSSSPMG

[2] = molecular target: T2, human FcγRIIb extracellular domain with C-terminal His tag (human, UniProt P31994 43-217); assay: SPR
T2 construct: extracellular domain; for crystals expressed with kifunensine and trimmed with Endo F1; also called FcγRIIb extracellular region
T2 sequence (looked up): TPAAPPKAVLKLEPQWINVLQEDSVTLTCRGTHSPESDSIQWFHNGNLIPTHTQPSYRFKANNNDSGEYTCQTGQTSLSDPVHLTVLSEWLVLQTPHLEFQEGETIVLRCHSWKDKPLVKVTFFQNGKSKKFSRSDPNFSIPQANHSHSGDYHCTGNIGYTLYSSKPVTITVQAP

[3] = molecular target: T3, human IgE (human); assay: SPR (Biacore T200), human IgE held on SA chip by biotinylated GPC3 peptide, antibody as analyte, 37 C; pH7.4, 1.2 mM Ca; pH 7.4
T3 construct: Recombinant human IgE used as the antigen; its variable region is from an anti-human glypican 3 antibody; held on the chip by a biotinylated GPC3 peptide; also called hIgE
T3 sequence (heavy, as listed by the source, chain 1 of 2, other chains not shown): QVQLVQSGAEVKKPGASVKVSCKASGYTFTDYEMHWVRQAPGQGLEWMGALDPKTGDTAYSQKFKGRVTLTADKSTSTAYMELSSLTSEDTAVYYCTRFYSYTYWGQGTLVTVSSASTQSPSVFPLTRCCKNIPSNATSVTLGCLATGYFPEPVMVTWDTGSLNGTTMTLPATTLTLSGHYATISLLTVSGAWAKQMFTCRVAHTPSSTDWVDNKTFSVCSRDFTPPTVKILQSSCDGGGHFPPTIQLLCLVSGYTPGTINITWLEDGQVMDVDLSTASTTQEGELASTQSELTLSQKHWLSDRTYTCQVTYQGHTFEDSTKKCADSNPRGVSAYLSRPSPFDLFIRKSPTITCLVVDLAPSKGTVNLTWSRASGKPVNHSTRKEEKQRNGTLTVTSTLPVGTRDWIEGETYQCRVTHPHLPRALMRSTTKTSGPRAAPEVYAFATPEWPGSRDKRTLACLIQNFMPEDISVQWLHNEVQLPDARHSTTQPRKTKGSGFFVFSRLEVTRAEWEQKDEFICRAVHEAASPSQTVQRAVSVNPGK
Method: (§1) Measurements were carried out using the following three types of running buffers:
(§2) An appropriate concentration of human IgE was injected and captured by the biotinylated GPC3 peptide to immobilize human IgE on the chip. […] Then, 10 mmol/L glycine-HCl (pH 1.5) was injected to regenerate the sensor chip. All of the assay for the interaction was performed at 37° C. Using Biacore T200 Evaluation Software (GE Healthcare), the assay results were analyzed by curve fitting to determine the binding rate constant ka (1/Ms) and dissociation rate constant kd (1/s). Dissociation constant KD (M) was calculated from the above constants.

[4] = molecular target: T3, human IgE; assay: SPR (Biacore T200), human IgE held on SA chip by biotinylated GPC3 peptide, antibody as analyte, 37 C; pH5.8, 1.2 mM Ca; pH 5.8
Method: as §1, §2

[5] = molecular target: T3, human IgE; assay: SPR (Biacore T200), human IgE held on SA chip by biotinylated GPC3 peptide, antibody as analyte, 37 C; pH7.4, 1.2 mM Ca; pH7.4, 1.2 mM Ca; 37 C; pH 7.4
Method: as §1, §2

[6] = molecular target: T3, human IgE; assay: SPR (Biacore T200), human IgE held on SA chip by biotinylated GPC3 peptide, antibody as analyte, 37 C; pH5.8, 3 µM Ca; pH 5.8
Method: as §1, §2

[7] = molecular target: T4, human FcγRIIb extracellular domain with C-terminal His tag (human, UniProt P31994 43-217); assay: SPR (Biacore), binding amount
T4 construct: extracellular domain; also called FcgRIIb
T4 sequence (looked up): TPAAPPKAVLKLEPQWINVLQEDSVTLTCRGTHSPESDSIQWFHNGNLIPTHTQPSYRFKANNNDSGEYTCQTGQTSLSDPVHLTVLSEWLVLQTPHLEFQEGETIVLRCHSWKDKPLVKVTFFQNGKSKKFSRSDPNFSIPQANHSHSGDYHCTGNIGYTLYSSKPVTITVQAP

[8] = molecular target: T5, human FcγRIIIa type V extracellular domain with C-terminal His tag (human, UniProt P08637 17-208); assay: SPR (Biacore), binding amount
T5 construct: extracellular domain; also called FcγRIIIaV; FcgRIIIaV
T5 sequence (P08637 17-208 F176V): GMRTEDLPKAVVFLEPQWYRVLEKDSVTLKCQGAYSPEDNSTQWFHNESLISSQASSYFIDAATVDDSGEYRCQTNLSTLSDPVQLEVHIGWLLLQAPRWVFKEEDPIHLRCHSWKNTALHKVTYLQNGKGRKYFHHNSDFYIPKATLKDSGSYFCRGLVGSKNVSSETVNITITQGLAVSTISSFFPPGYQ

[9] = molecular target: T6, human FcγRIIa type H extracellular domain with C-terminal His tag (human, UniProt P12318 34-217); assay: SPR (Biacore), binding amount
T6 construct: extracellular domain; also called FcγRIIaH; FcgRIIaH
T6 sequence (looked up): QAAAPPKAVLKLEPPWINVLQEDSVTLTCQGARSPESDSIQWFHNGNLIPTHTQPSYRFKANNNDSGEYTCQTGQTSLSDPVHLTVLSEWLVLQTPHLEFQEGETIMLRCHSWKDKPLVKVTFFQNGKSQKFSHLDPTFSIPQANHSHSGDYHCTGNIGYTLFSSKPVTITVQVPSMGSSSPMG

[10] = molecular target: T7, human FcγRIIa type R extracellular domain with C-terminal His tag (human, UniProt P12318 34-217); assay: SPR (Biacore), binding amount
T7 construct: extracellular domain; also called FcγRIIaR; FcgRIIaR
T7 sequence (looked up): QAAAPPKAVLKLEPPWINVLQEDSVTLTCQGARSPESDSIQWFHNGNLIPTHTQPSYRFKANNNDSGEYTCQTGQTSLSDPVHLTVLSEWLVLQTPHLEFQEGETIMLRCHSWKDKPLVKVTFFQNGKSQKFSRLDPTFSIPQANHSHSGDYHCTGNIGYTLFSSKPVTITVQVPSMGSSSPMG

[11] = molecular target: T8, human FcγRIa extracellular domain with C-terminal His tag (human, UniProt P12314 16-292); assay: SPR (Biacore), binding amount
T8 construct: extracellular domain; also called FcgRIa
T8 sequence (P12314 16-292): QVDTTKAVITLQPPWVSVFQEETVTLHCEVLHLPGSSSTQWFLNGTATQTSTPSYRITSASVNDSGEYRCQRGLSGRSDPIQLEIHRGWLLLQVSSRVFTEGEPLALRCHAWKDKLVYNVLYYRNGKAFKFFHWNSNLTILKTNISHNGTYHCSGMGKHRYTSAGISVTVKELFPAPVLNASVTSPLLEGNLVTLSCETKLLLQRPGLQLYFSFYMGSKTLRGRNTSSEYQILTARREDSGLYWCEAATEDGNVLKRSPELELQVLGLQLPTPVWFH

[12] = molecular target: T1, human FcγRIIa type R extracellular …; assay: SPR, amount of binding
From the text: (§3) These variants were expressed and purified by the method of Reference Example 2. These Fc variants are called PD variants. Interactions of each PD variant with FcγRIIa type R and FcγRIIb were comprehensively evaluated by the method of Reference Example 25.

[13] = molecular target: T2, human FcγRIIb extracellular domain with …; assay: SPR, amount of binding
From the text: as §3

[14] = molecular target: T9, human FcγRIa extracellular domain with C-terminal His tag (human, UniProt P12314 16-292); assay: SPR (Biacore)
T9 construct: extracellular domain
T9 sequence (P12314 16-292): as above

[15] = molecular target: T10, human FcγRIIa type R extracellular domain with C-terminal His tag (human, UniProt P12318 34-217); assay: SPR (Biacore)
T10 construct: extracellular domain; also called FcγRIIaR; FcγRIIa(R)
T10 sequence (looked up): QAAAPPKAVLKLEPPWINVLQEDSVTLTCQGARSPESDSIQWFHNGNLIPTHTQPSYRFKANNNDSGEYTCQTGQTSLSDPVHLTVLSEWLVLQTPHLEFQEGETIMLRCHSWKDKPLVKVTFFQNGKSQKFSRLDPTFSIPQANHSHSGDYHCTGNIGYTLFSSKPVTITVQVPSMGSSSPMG

[16] = molecular target: T11, human FcγRIIb extracellular domain with C-terminal His tag (human, UniProt P31994 43-217); assay: SPR (Biacore)
T11 construct: extracellular domain
T11 sequence (looked up): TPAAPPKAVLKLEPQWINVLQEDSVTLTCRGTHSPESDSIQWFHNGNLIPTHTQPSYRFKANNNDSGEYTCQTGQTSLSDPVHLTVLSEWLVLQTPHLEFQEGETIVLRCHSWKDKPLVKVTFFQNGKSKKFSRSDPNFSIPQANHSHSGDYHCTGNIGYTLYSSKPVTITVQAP

[17] = molecular target: T12, human FcγRIIIa type V extracellular domain with C-terminal His tag (human, UniProt P08637 17-208); assay: SPR (Biacore)
T12 construct: extracellular domain; also called FcγRIIIaV; FcγRIIIa(V)
T12 sequence (P08637 17-208 F176V): as the sequence (P08637 17-208 F176V) above

B2: 278-IgG1 (antibody, V domains shown)
VH: QSLEESGGRLVTPGTPLTLTCTASGFSLSSYHMSWVRQAPGKGLEWIGVINSAGNTYYASWAKGRFTVSKTSTTVDLNLTSLTTEDTATYFCARYVFSSGSHDIWGPGTLVTVSS
VL: AYDMTQTPASVEVAVGGTVTIKCQASQSIGSWLAWYQQKPGQPPKELIYGTSTLESGVPSRFIGSGSGTEFTLTISGVECADAATYYCQQGYSEDNIDNAFGGGTEVVVKR
notes: pH-dependent anti-human IgE antibody
- koff [3]: 0.0036 s⁻¹
- koff [4]: 0.23 s⁻¹
- kon [4]: 120000 M⁻¹ s⁻¹
- kon [5]: 1.5e+06 M⁻¹ s⁻¹
- koff [6]: 0.24 s⁻¹
- kon [6]: 62000 M⁻¹ s⁻¹

B3: IL6R-BP198/IL6R-L (antibody, human IgG1, kappa)
heavy: QVQLQESGPGLVKPSETLSLTCAVSGHSISHDHAWSWVRQPPGEGLEWIGFISYSGITNYNPSLQGRVTISRDNSKNTLYLQMNSLRAEDTAVYYCARSLARTTAMDYWGEGTLVTVSSASTKGPSVFPLAPSSKSTSGGTAALGCLVKDYFPEPVTVSWNSGALTSGVHTFPAVLQSSGLYSLSSVVTVPSSSLGTQTYICNVNHKPSNTKVDKKVEPKSCDKTHTCPPCPAPDYLGGDSVFLFPPKPKDTLMISRTPEVTCVVVDVSDEDGEVKFNWYVDGVEVHNAKTKPREEQYNSTYRVVSVLTVLHQDWLNGKEYKCKVSNAALPKPIEKTISKAKGQPREPQVYTLPPSRDELTKNQVSLTCLVKGFYPSDIAVEWESNGQPENNYKTTPPVLDSDGSFFLYSKLTVDKSRWQQGNVFSCSVMHEALHNHYTQESLSLSP
light: not shown
notes: EU numbering; alterations on IL6R-B3; copies: 2 + 2
- relative binding activity [7]: 164 % of IL6R-BF648/IL6R-L
- relative binding activity [8]: 157 % of IL6R-BF648/IL6R-L
- relative binding activity [9]: 188 % of IL6R-BF648/IL6R-L
- relative binding activity [10]: 449 % of IL6R-BF648/IL6R-L
- relative binding activity [11]: 104 % of IL6R-BF648/IL6R-L

B5: IL6R-BP253/IL6R-L (antibody, human IgG1, kappa)
heavy: QVQLQESGPGLVKPSETLSLTCAVSGHSISHDHAWSWVRQPPGEGLEWIGFISYSGITNYNPSLQGRVTISRDNSKNTLYLQMNSLRAEDTAVYYCARSLARTTAMDYWGEGTLVTVSSASTKGPSVFPLAPSSKSTSGGTAALGCLVKDYFPEPVTVSWNSGALTSGVHTFPAVLQSSGLYSLSSVVTVPSSSLGTQTYICNVNHKPSNTKVDKKVEPKSCDKTHTCPPCPAPELLGGPSVFLFPPKPKDTLMISRTPEVTCVVVDVEHEDPEVKFNWYVDGVEVHNAKTKPREEQYNSTYRVVSVLTVLHQDWLNGKEYKCKVSNKAFPAPIEKTISKAKGQPREPQVYTLPPSRDELTKNQVSLTCLVKGFYPSDIAVEWESNGQPENNYKTTPPVLDSDGSFFLYSKLTVDKSRWQQGNVFSCSVMHEALHNHYTQESLSLSP
light: not shown
notes: Comparison control with existing alterations; copies: 2 + 2
- Kd [14]: 0.067 nM
- Kd [15]: 2.1 nM
- Kd [16]: 11 nM
- Kd [17]: 3600 nM

Results, then the binder that gave them:

- fold against IL6R-BP230/IL6R-L [1]: 1.1 fold
- fold against IL6R-BP230/IL6R-L [2]: 1.1 fold
B1: IL6R-BP478/IL6R-L (antibody)
heavy: QVQLQESGPGLVKPSETLSLTCAVSGHSISHDHAWSWVRQPPGEGLEWIGFISYSGITNYNPSLQGRVTISRDNSKNTLYLQMNSLRAEDTAVYYCARSLARTTAMDYWGEGTLVTVSSASTKGPSVFPLAPCSRSTSESTAALGCLVKDYFPEPVTVSWNSGALTSGVHTFPAVLQSSGLYSLSSVVTVPSSSLGTKTYTCNVDHKPSNTKVDKRVESKYGPPCPPCPAPDLLGDDSVFLFPPKPKDTLMISRTPEVTCVVVDVSDEDGEVKFNWYVDGVEVHNAKTKPREEQDNSTYRVVSVLTVLHQDWLNGKEYKCKVSNKALPRPIEKTISKAKGQPREPQVYTLPPSRDELTKNQVSLTCLVKGFYPSDIAVEWESNGQPENNYKTTPPVLDSDGSFFLYSKLTVDKSRWQQGNVFSCSVMHEALHNHYTQESLSLSP
light: not shown
notes: IL6R-BP230 in which Ala118-Thr225 (EU numbering) is replaced by Ala118-Pro222 of G4d; copies: 2 + 2

- relative binding activity [12]: 100 IL6R-F652/IL6R-L = 100
- relative binding activity [13]: 100 IL6R-F652/IL6R-L = 100
B4: IL6R-F652/IL6R-L (antibody, human IgG1, kappa)
heavy: QVQLQESGPGLVKPSETLSLTCAVSGHSISHDHAWSWVRQPPGEGLEWIGFISYSGITNYNPSLQGRVTISRDNSKNTLYLQMNSLRAEDTAVYYCARSLARTTAMDYWGEGTLVTVSSASTKGPSVFPLAPSSKSTSGGTAALGCLVKDYFPEPVTVSWNSGALTSGVHTFPAVLQSSGLYSLSSVVTVPSSSLGTQTYICNVNHKPSNTKVDKKVEPKSCDKTHTCPPCPAPELLGGDSVFLFPPKPKDTLYISRTPEVTCVVVDVSHEDPEVKFNWYVDGVEVHNAKTKPREEQYNSTYRVVSVLTVLHQDWLNGKEYKCKVSNKALPAPIEKTISKAKGQPREPQVYTLPPSRDELTKNQVSLTCLVKGFYPSDIAVEWESNGQPENNYKTTPPVLDSDGSFFLYSKLTVDKSRWQQGNVFSCSVMHEALHYHYTQKSLSLSP
light: not shown
notes: IL6R-F11 with P238D (EU numbering); copies: 2 + 2
